According to the supplement of paper PMC12636428:

Test system: Saccharomyces cerevisiae
Experiment: transcriptional activation domain activity (GFP:mCherry ratio, weighted mean of sorted bins, harmonized to initial dataset scale) (arbitrary fluorescence ratio units); higher = stronger transcriptional activation
Settings: beta-estradiol 1 µM; induction time 4 h
Outline: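 In diploid yeast carrying a GFP reporter, barcoded protein tiles fused to an estradiol-inducible synthetic transcription factor were integrated at the URA3 locus. Cultures diluted 1:5 into SC with 1 uM beta-estradiol were kept at 30 °C for 4 hours, then sorted by GFP:mCherry ratio into 8 bins before barcode sequencing. Tiles with under 50 reads were excluded. The activation activity reported here is the read-weighted mean of bin median fluorescence, averaged across barcodes and linearly rescaled to the initial dataset.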

Sequence | transcriptional activation domain activity
FLLLFFFFVYFHLSFSFLTFLLSPLFVFIFMFYFGSFIFLPLSLFLFSLLFFS | 66100
KRCFSLFFFFFFSFLPFLFLFLSPYCLLNTFVPFSFSFLIYLILLLKFNLSAE | 48900
LSLPPPLPFFPPLFPFFFLFFFYLLISFFFSFLFCGEMDLGWALQVAAATYSH | 36700
KVKKKRRRSDSSDEDAIAALKAKRKKKKRADSDSDEEETSRKKSKSKRRRKAD | 42800
TEEDAINQSKESNMISINEMLQKQMDFELLGENHLKETQDYLALYKKAYGIEF | 113000
GEGRAGGGRGGRKDSRDDRRGNRNSSNERDRSRNRRNSNGNNRSKKNDSDRGR | 24400
MYVLAISQTRAWTNLNLFRSCMVGLVNLCVILLKMLPIVVFCTLWYNVDLNIP | 73400
MYHISCWFIFFHLLMSHIFIFIFIFLLLLFYKCIIFLFLYTYFFYFLVFSRLL | 25700
KQLAKKTESFSGSDLKHLCVSAALDAVKERVTVPWRHSTTSAPSSSAPAEAQP | 19000
MPLWPPFWSAFSFSFSFVLSFFFFLFPFPFPFPFPFSFSLSFLFFLFFSFLFF | 31000
LARVLTDFPMIFVMCTVFCIILYFMSGFAMEASKFWIFYLFVYVTTFCITALY | 46200
APPPPPPPPPPPPPPPSSSSAPSPSSTSAPPPPPPPPPPPPPPPGGGGPPPPP | 32900
MLNLVILAFVIVFSTFLIGCVDYAAIPTHHALSEVMLPHCYARLSPSTVLFLL | 39700
LGQLLLLLLLLLLLLLLLLLLLLLLLLLLLLLLRRRRRRWWWWRRLLILRIRR | 73200
LRWVLLPLCLFFSVCLEAHWPSISLAIVIIAYNELHMSSHWFLRGFCYAWGNA | 36800
QFALLLGSFLCVAISCFGHLALLFLWLIAPFYFLVFLFWQSFNLFLFVSVCCG | 44700
SGEATATPEKSKTPRKRKTKAEGDSADNGDADGSPKKKAGGRKKKADVVKEEM | 23600
CGFVVFVIRWSTVSVGYLGIIRWLVICKKLQFSEIKRIMRVYFCHMALFIFTL | 40900
NAVNKSRGMVKGSGRKLHQQKGTGRARMRDAQNPIRRGGGRAFAKTTARNWLV | 29500
IILRIVGAPNWIQFWSLGRNQVDLLLVISTCVIQLPMIQNLDIYKYLTIFQVF | 81300
TDMDLKILEDLCNISSLYEVPFGKHINHHDHNNAGNGCDGSSTGNNENGNQTM | 77600
FLPCDPYFLVSFFIQFFLLGFPFCLPLLSFLLLLLSFFHLSLEVFSLLLGDFH | 59400
KPKRKERSDKGKKRGPRAKDGTGTKAAENTLVAKAKPAAKGQEKRRGKADDAK | 16700
IQAAGLWQCRYSSYGIECVRYVFFFTMFLFLLRSGWYLSSAFFLGLLWHQLSF | 39600
KPHHKWIVPTPFSSHAFHPVDGYAQSVPYHLFVFIFPMQRHLYLFLFVAVNFW | 44100

Sequence | transcriptional activation domain activity
QLQPFSESQSQNKFDYDMFFRDSSKEGNNLFGEFLEDDDDDKKAANMSDDESS | 43800
ENNNYAVDLAKSNGMHIVGIQGSDIVDGRKTLVLGLVWQLMRLSIYKTLSSLT | 41900
VSFFFFLSFFFPPFFFFSLSFLLSFFLSFLLPFPFFLSFFPFFPGCAAPSRSN | 32200
SFALCNRIVVGCAILRTGKILKSWHVARVSHFSTFVFNGVIHGSIPNMILTRK | 55100
FLSCLLAMEIIQHYMYVVAIKDRKAWIGDSPFELSMIGLWNLVIVWLKLLLPW | 59900
MPLFCSISPSFHESVHFWFFFFFFLSLTLFPSFRLVSYFCTFFLFLNWVNRGF | 44800
LSHFLAGLHHSVLLAYFLYFFVLPFSLLCYSIFLLYFSFGLDGIILLFYYFIF | 37100
LSSFALLSSGYFLDVFFLFFCFFVFFVFPFLFLLSTVNTHAIFFFFLSFSFVI | 60300
LFSPFPPSISFPLSSHSSLPPLFPPLFPPLFPPFLPSLCFPLFPSLPFPPLPL | 19500
APFSKGPRMWNEVYITSLAHGCLVNRLFCSLAWCELYLIFGNIFRRLDLKLFV | 58100
GSKMLTEFKKKLRLDYFMLLDLRLWKDMRMCLRKLFISTLIANLSYKRILGLR | 61700
LFYFTFSFFVRTAFITLPIYLFWFLYSYFWNYWTSYFPWNDLFLPAWPISRTR | 39300
LHSFRRQNGFIRLNIWDLNPSPKILQLYLLTQTIKRYIVLCLLLNLGFTIAQC | 60700
EGGEKGGHGGKEGGEGGEGGEGGEEGGHGGHWGHKKHGHGGGKQKGGWGHHGY | 45300
STKVLLRVFIPVAGYFWISLNYSLVSLAFHVKFNNYFGNIGFFIWWMLNWLTM | 57300
IILDLLLRFSKVENVISQAVDSPPMGRLGCCAIVTGSAVAWALCTATRFRLVL | 52600
GIVLLLNAWKGQKIGFVSKDLNLVYSCIRIANEAEERHIAAGRYVDFMNLLLH | 45500
VTLVKRVDLFWYFVPNSVCWSCVVERSIALDVAERYLGRETNATPPWIRGLLP | 32500
YLIGFIGFVMSLQKQYLKSQFGLFCWVHMSLLVIVVSSHFIINNIFEGLIWFW | 79300
EKKEKSSRKSTSRAAANGTAEKASKGEASSKKSRGASRPRSPKKTRSPAGRPA | 24500
VLSSSLCFPLPPLSPPFLPSLCFPLPPFFPFPPFPLFPPFLPFPLFPLCFPLP | 48300
LGYQIVLLLPWTLFCYCWTLCVVIFSLVAMIIPPLGYVCTIFSVTSWRALARV | 69800
RKLLIALDMRLQNIRSNWKEHHSLTVVIQLTLRLLSLGLSSEVVAGCLDLLKS | 64700
GGEGGAARNGRKRAENARRGREGGKERGPGNKTVAGQEAGGRGHREDRGGSDR | 40500
NSTIHNLFEVVLLPDLCGFCCFSMRFVVLIDLIGTLTLPVSVVYLVYLIYVIA | 46800

Sequence | transcriptional activation domain activity
FRCLFLLFLLFSLICCRAISLQKHCLCLTYASSTALFVIVFILLLFWYLIIIT | 76100
QRMGSMVQRVQSTCRKCRGEGKILLEKDRCKKCAGRGIVKASKKLEVHVDKGM | 20000
DVNTGATSAPLSVGDVRHVAAPLEESGGCTLAMLVDDDGVMRIVVLRVTVDPV | 35300
LSILSSLSFSFLSSLSLSFFTLIPFLPLLLFLYSLYSHLFLLLSFILFPHPSL | 65400
MLCLCTIWIYNAQICYYLSSCSTLLVTDCCCCYYYSLLFYILTSSFFQILLST | 50100
RAAAVRGAAQEPQPESRGTSATPARKTAKTEGEEKPAKKRRTAGGDKANKRSK | 9380
WWMYLPLLLLLVLMFAPHYSILVLLVSYYLNIHDSPFLFSLHLFVIYLITFLA | 58200
ARDDGGGEGAAGETHQAQEARRVLDAGGRARAGAGALRAGPQQHPAPARALRP | 14300
EEDEEDEDDDDDDDDDDDDDDDDDDEKPVHHKKPAHHRHHHKSKPVHHESQPA | < 6570
AADQVQDTAGQAVNQVGDTAGKALGGLTGGGKKEQGGEEEGGGEQLRLRLELN | 35700
TSSTNHFYGTVVKTKDLLPIYLDVVLWMLKRDLLVTLHLRVRIVVPAELKERA | 59600
MIWCSFLLALSWSYFCDLPCFFFFFFFFFFFFFFFADIYCSFLSFKLITPISF | 52600
TGGAGATRTSKAKADRHVTQAGHRRLRAQAACERCRRRKLKCEPSGASCVACV | 48800
MTEQAPTIRTAEKDTEGPAKRRRRPALSCVECRSRKVRCDRGKPCRACTRVRS | 26200
MEAKEGRPGNAFACERCRKHKVRCVPSDAPGICQRCQRARAPCIEHVARRRPA | 31400
EIFSSYNASMVQESAGIDFLDFAMPDLIAEANDWAFQGVDSAFFDSVMAGYTL | 147000
NGPQGQQQQGQRAGQRGQGAGAGEAGQQNGQQGQQAGQRGRGTQAGAAGQQNG | 20600
DLASPSDNDIDEARSREIAAKAVTGILVLLLKWLKLSHILKFEYLTQLLLDSN | 64400
MGCFFCYCSIVLFRSSLYIISFFLLFFFLCFLFFYHIWVGVLFPSIFPLFYIR | 65400
ERRRKDQRKREKEEEERCHQEGREKKGEEHRREGDEERGRKEQETHASQEANG | 29600
SCLAVITWDVLNFLIVDCHIIFYRKFNWRVLVFIVARLSPYCFFLSLSISLTS | 60900
PWTFDLGLFGLGLFGLFGLFGLFGLFGLGPFGLGLFGPLDFLALDFLDLWTFW | 18400
HHFVCAFYFQDSWGLGLMKRLLIVVCLLLATYVFPLPLTSPPWSFIWKQSWVI | 48300
FTELEKHSNVSQFNTLDVSEGNQVINESASTNTSSALNCQSYTNNQDIMDILF | 48800
